One assay has as its target T1, human PACAP27 (human, C-terminal leucine is amidated; 125I-labelled in Example 10).
T1 construct: also called 125I-labelled PACAP27
T1 peptide: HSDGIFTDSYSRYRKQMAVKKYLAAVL
Nature of the assay: SPR (ProteOn XPR36), antibody amine-coupled to chip, peptide as analyte, 1:1 Langmuir fit.

For another assay, the target named is T2, human PACAP38 (human, C-terminal lysine is amidated; N-terminally or C-terminally biotinylated in the HTRF and cell binding assays).
T2 construct: Synthetic peptide (American Peptide; biotinylated forms from AnaSpec); also called PACAP 1-38; wild-type PACAP peptide (1-38)
T2 peptide: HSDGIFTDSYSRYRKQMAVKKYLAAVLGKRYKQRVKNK
Described as above.

The record followed here is patent US20160376363A1 (ALDER BIOPHARMACEUTICALS, published 2016).

B1: Ab21 (antibody, V domains shown)
VH: QSVEESGGRLVTPGTPLTLTCTVSGIDLSSYYMTWVRQAPGKGLEWVGFIDAGGSAYYATWAKGRFTISKASTTVDLKITSPTTEDTATYFCARDLDLWGPGTLVTVSS
VL: AAVLTQTPSPVSAAVGGTVSISCKSSESVYGDYLAWFQQKPGQPPKQLIYDASTLASGVPSRFKGSGSGTQFTLTISGVQCDDAATYYCAGGYVSAGVAFGGGTEVVVKR
As for B1, the Kd in the assay with human PACAP27 stood at 13 pM; with human PACAP38, 27 pM. Further, the off-rate constant (koff) with human PACAP27 and in the assay with human PACAP38 was 1e-05 s⁻¹ each time.
